# IntAct's records for PubMed 31749804
# B1: Complement C1r subcomponent (Homo sapiens), P00736 (parent)
# chain: MWLLYLLVPALFCRAGGSIPIPQKLFGEVTSPLFPKPYPNNFETTTVITVPTGYRVKLVFQQFDLEPSEGCFYDYVKISADKKSLGRFCGQLGSPLGNPPGKKEFMSQGNKMLLTFHTDFSNEENGTIMFYKGFLAYYQAVDLDECASRSKSGEEDPQPQCQHLCHNYVGGYFCSCRPGYELQEDTHSCQAECSSELYTEASGYISSLEYPRSYPPDLRCNYSIRVERGLTLHLKFLEPFDIDDHQQVHCPYDQLQIYANGKNIGEFCGKQRPPDLDTSSNAVDLLFFTDESGDSRGWKLRYTTEIIKCPQPKTLDEFTIIQNLQPQYQFRDYFIATCKQGYQLIEGNQVLHSFTAVCQDDGTWHRAMPRCKIKDCGQPRNLPNGDFRYTTTMGVNTYKARIQYYCHEPYYKMQTRAGSRESEQGVYTCTAQGIWKNEQKGEKIPRCLPVCGKPVNPVEQRQRIIGGQKAKMGNFPWQVFTNIHGRGGGALLGDRWILTAAHTLYPKEHEAQSNASLDVFLGHTNVEELMKLGNHPIRRVSVHPDYRQDESYNFEGDIALLELENSVTLGPNLLPICLPDNDTFYDLGLMGYVSGFGVMEEKIAHDLRFVRLPVANPQACENWLRGKNRMDVFSQNMFCAGHPSLKQDACQGDSGGVFAVRDPNTDRWVATGIVSWGIGCSRGYGFYTKVLNYVDWIKKEMEEED
# partner: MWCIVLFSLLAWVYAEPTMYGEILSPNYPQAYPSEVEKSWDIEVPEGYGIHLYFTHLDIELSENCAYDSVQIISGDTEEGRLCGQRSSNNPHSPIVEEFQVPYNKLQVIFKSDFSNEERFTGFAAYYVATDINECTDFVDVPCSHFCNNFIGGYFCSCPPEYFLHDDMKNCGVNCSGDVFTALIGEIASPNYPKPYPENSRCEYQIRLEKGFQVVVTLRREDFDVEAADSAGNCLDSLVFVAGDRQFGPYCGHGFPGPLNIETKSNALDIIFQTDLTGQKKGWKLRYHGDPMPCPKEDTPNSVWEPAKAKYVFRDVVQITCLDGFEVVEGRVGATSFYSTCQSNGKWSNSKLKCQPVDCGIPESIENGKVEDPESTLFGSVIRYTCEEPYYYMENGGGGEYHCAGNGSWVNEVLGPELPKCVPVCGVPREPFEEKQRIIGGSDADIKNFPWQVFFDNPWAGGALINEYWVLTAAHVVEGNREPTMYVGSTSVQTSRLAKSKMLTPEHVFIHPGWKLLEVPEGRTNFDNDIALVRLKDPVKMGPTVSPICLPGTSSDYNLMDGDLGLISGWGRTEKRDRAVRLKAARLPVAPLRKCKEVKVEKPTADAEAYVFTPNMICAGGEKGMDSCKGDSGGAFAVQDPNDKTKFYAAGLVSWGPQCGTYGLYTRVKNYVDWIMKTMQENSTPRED
# Variants of: B1
# Details: with c1s_human C1S
row,Variant,effect of a mutation on the interaction
1,D290G,with no effect
